Measurements: the DeepSol protein solubility set

experiment: soluble on expression in E. coli; label from the status in PepcDB or PDB records

Row | Sequence | soluble on expression in E. coli
1 | MLRTICKQHTALPDKSIRKLEKIAEGLTVLSKLLKADIFIDCPTGINDAAIVVAEANPETGSSYTQSVVGQYAYRKNEPAVLRTLETGLPSRDYKALTQENTLVRQNVVPIKNEKEEVIGVLIVEEGSNDTGLNKELNFLHDATNELLRSSMEMTKEQKIIDYINDGIIIFNEKGILIYANSKAKNIYKKIGYKHNILGTKFSNIVLNNIAFKDVLDGIIPGSSDIHIAKMDLNIHYYLIKESKNVKNVVLFIKDLTEIKEKEKELILKSVAIKEIHHRVKNNLQTIASLLRIQARKTEDEAVRQAFNESINRILSIAVTHEILAQNGLDDLKIKEMFSKILKNSIRASIGENLDLKTSISGDDFKINSDKSTSIALIANELVQNSITHGFKGMTSGKIDITVKQGKIKSKVTIADNGVGFKSKDFKNESLGLQIVKSLVKEKLFGTIDIKSTKNGTIIVFDFEN | not soluble
2 | MNNPKPCEWKSNELSRGYIADYKAFNFVDGEGVRCSLYVSGCPFHCEGCYNKAAQSFKYGKPYTKELEDDILKDIGHESVQGLTLLGGEPFLNTATCLSIVKRIRATYGETKDIWSWTGYTWDEMMQETADKLELLSLIDVLVDGRFEQKLFDPNLAFRGSSNQRIIDVQKSLAAGEVVLYELLEHHHHHH | not soluble
3 | MIKAILIFNNHGKPRLCKFYQHYSEDTQQQIIRETFHLVSKRDENVCNFLEGGLLIGGSDNKLIYRHYATLYFVFCVDSSESELGILDLIQVFVETLDKCFENVCELDLIFHVDKVHNILAEMVMGGMVLETNMNEIVTQIDA | soluble
4 | MSLINKEILPFTAQAFDPKKDQFKEVTQEDLKGSWSVVCFYPADFSFVCPTELEDLQNQYEELQKLGVNVFSVSTDTHFVHKAWHDHSDAISKITYTMIGDPSQTITRNFDVLDEATGLAQRGTFIIDPDGVVQASEINADGIGRDASTLAHKIKAAQYVRKNPGEVCPAKWEEGAKTLQPGLDLVGKI | not soluble
5 | MEYRKVGKWGVKISELSLGSWLTFGKQLDLDTATEVVKKAFNSGINFFDTAEAYAGGIAEAMLGKILKNFRREDLVVSTKIFWGGSGPNDLGLSKKHLLEGTWNSLKRLQMDYVDILYCHRPDPNVPMEEVVFAMDYILREGLALYWGTSEWSAKEIEEAHRVCKELGVMPPIVEQPQYNMFVRERVEKEYAPLYEKYGMGLTTYSPLASGLLSGKYNNGIPEGSRLATFPQVRKWLEEGGLLNEKTFKKLRKLQNIADQLGASLPQLAIAWILKNKNVSSVILGVSRPEQLEENLKAVEIKEKLTEDVMEEIEKILNE | soluble
6 | TQDMELNINANITFQQNKLLSLSGMYNGELISAPEYKSLASLDGAGFHGGYNHIVYQVVGQPLGVFYLPRANGLVSDGNGGYTYDIADLNGGGVSLEDGEDRYVAGQAVPKTILGSNLSFRYKRFDISVQINGAFGHKIYNGTSLTYMNMNIFPDYNVMQEAPARNIKDQTATDYWLENGAYVNFDYVTLGWNVPIEKVQKLKKYVRSLRLAFTVNNLATISGYSGLSPMINSSTVNSTLGLDDKRGYPLARTYTLGLSINF | not soluble
7 | SLRAFRRATDVKTMAALDIQISVEAEGWSSEENLAAFATKVLNAAVDFLKREEEQPFPKMPVELSLVFTDDENIREINAEWRDKDKATNVLSFPAFPLEPGGMPGPMLGDIVIARETVEREALELDKSFEDHLTHLLVHGFLHLFGYDHMDEEEAEEMESLETRILAVLGLSDPYAGQE | not soluble
8 | MGSSHHHHHHSSGLVPRGSHMLPKPDQINQIIVLLNIYHGKKKPSEIAREMDITLQGVIYHMKNLRRDGLIDEENRITKKGFDFLYRQLSDMREFITSNILDLDSLMVWEAIAAEDITAGSTVHLRMKGGYLYAFLSGGGATGRAVNDSQAGGLVGITNLSGLIDVNFGKLSIIVIPDSIDGGISERLKKAAADLSPALFAAMGEAGYVALKNIGIEPDIEYSALQAAFEASVRGQNVVLVTSRRRLHYSMAEIPQLENRYNPVKANITDLS | soluble
9 | MASIGRAIVRVPKNVKKGQIFKVQMVIIHPMETGLRKDPKTGKKIPAHYITHVDLYFNGKLVTKINTSPGISKNPYFAIKMKAEEAGTLKIVYEDNKGGKWEKEVKINVA | not soluble
10 | MGSDKIHHHHHHMNTLVLPKTQHLVVFQEVIRSGSIGSAAKSLGLTQPAVSKIISDVEAYFGVELIVRKNTGVTLTEAGQVLLSWSESITREMKNMINEMNSMTCNTVVDVSFGFPSLIGFTFMSDMIHKFKEVFPKAQVSMYEAQLSSFLPALRDGRLDFAIGTLSNEMQLQDLHVEPLFESEFVLVASKSRTCTGTITLESLKDEQWVLPQTNMGYYSELLTTLQRNGISIENIVKTDSVVTIYNLVLNADFLTVIPCDMTTPFGSNQFITIPIQDTLPVARYAAVWSKNYRIKKAASVLVELAKQYSSYNGCRRRQLIEIE | not soluble
11 | GGWGFLASFAAGIGLRHAEVATLGRASAPAEAQAAAADVREAGQASGAIEYGADRSEHPKVAAGAVMLDVLSFGNLLERSLEVLLVTLLGAMLYQHWDWRA | not soluble
12 | GPGSMGTDKVMSEKLVLEKTKVKSLSDVQRLDMWGEGLTDISLVAKLPRLEVLALAANNVSSLKALQGCELLQELYLRKNKVANLREVTALRVLPTLSVLWLRDNPCAQHPYYREFVLHCCPGLRQLDGVEVTADERKAAAKRLTTKTLDEILGRSACADAASSPRPKKSSGAGSSPAKATDVTPSSTPGGVSDSTATIEERNASSRSVLFTTVAAQRAMLLSIVSLLSELTVESLELLQREVQERVEKQKEKLTKYVQENSQ | soluble
13 | MSLDNLITIYDKNDANNLAEHLYDTQGLGALSDWLTATVSNKLNGAEIFQGTYSINGTNADLIVEGRIIQCYVDENRAKQRLRIYYAKTSVIGNTIEVKAEPIFNDIRKSVLNKYDSGTEKITATQAWQNAKVLAKPAIPSQFSFSSLVDTLANVKIEKANFLEFFGGKEGSILDRFHGEFLKDNNTLRHEKSLGTDHKIKAIYTKNLTGLDLEIDAQSVLVGVYPFISSSSEGEDEITLPEEVIFTDYVDDYPAGYVSFVDFKDKATDVATLREAAKDWLKTNIDKQKPQVSGSIELVPLRHQRGYEKFVDLEKVSMGDGVDVYHPQLKVNMSARIVEYTFNVLTNSYDKLVVGNVKTNFLENTENNVSNLINDEGHHHHHH | soluble
14 | MSSYRGGSRGGGSNYMSNLPFGLGYGDVGKNHITEFPSIPLPINGPITNKERSLAVKYINFGKTVKDGPFYTGSMSLIIDQQENSKSGKRKPNIILDEDDTNDGIERYSDKYLKKRKIGISIDDHPYNLNLFPNELYNVMGINKKKLLAISKFNNADDVFTGTGLQDENIGLSMLAKLKELAEDVDDASTGDGAAKGSKTGEGEDDDLADDDFEEDEDEEDDDDYNAEKYFNNGDDDDYGDEEDPNEEAAF | not soluble
15 | MSHFTQLKTKLTNRDCLVQALEDLKLQPHVFEQPQPLAGYYMDSQGYSAEIIIFGRTIKARADIGFRWNQSSGVYEVIHDEYETSPRLGEDFFSHKLMQTYGRRMVLAKTEELREKFGECTISEETKGQVQTLRLTFAGHQEVKQYARRLEHHHHHH | not soluble
16 | MNMNKTYIPKLDDLLGGGVKEGASIMFSASPGVDYEAFGYQMLNGRLDEGTRGFIFTNVEEPESIIYEFRSYGWDIESHIENGNLFFVDGSSPFLGMPSDQRYTVNDYSEIKDVVLNAINDIPGGVGIINNLSVIIDYLGNGDTLEIVEAWNRRASELDVNLVYLFTEWDYEPELIDKLRESMDCVVNLRTIEERVIIGQGFMVANSAWSEPPSTMVLFFVVQPGGVKVYVPKILVTGPYNSGKSSFVRAIATKSVSVDRKALSAFPTTIAMDIGHLEYKGFMADIFGTPGQERFDMILDVLSREAVGAFILLDSTAPETFARAKEMIRKTRAEAIPKVVVANKQDLPGALSPEEIREMMKLGADVPIVPASVTEGWGVRDALDTLLGLLYGGLEHHHHHH | not soluble
17 | MVSIRRSFEAYVDDMNIITVLIPAEQKEIMTPPFRLETEITDFPLAVREEYSLEAKYKYVCVSDHPVTFGKIHCVRASSGHKTDLQIGAVIRTAAFDDEFYYDGELGAVYTADHTVFKVWAPAATSAAVKLSHPNKSGRTFQMTRLEKGVYAVTVTGDLHGYEYLFCICNNSEWMETVDQYAKAVTVNGEKGVVLRPDQMKWTAPLKPFSHPVDAVIYETHLRDFSIHENSGMINKGKYLALTETDTQTANGSSSGLAYVKELGVTHVELLPVNDFAGVDEEKPLDAYNWGYNPLHFFAPEGSYASNPHDPQTRKTELKQMINTLHQHGLRVILDVVFNHVYKRENSPFEKTVPGYFFRHDECGKPSNGTGVGNDIASERRMARKFIADCVVYWLEEYNVDGFRFDLLGILDIDTVLYMKEKATKAKPGILLFGEGWDLATPLPHEQKAALANAPRMPGIGFFNDMFRDAVKGNTFHLKATGFALGNGESAQAVMHGIAGSSGWKALAPIVPEPSQSINYVESHDNHTFWDKMSFALPQENDSRKRSRQRLAVAIILLAQGVPFIHSGQEFFRTKQGVENSYQSSDSINQLDWDRRETFKEDVHYIRRLISLRKAHPAFRLRSAADIQRHLECLTLKEHLIAYRLYDLDEVDEWKDIIVIHHASPDSVEWRLPNDIPYRLLCDPSGFQEDPTEIKKTVAVNGIGTVILYLASDLKSFA | soluble
18 | MFTGLHDILIILFLLVTLKIAQNVDHTKFLQKYGYLTSGDNQLSSESLSDALKNMQRMAGLEETGELDERTIQMMERPRCGHPDVEDHQKSRGKRYAPPQFKWKEKIITYGCKAVGTSTRISLDDLRRTMHQAASQWSELADVEIVESSVKNPMMVISAGRENHYPCTVRFDTKTLAHAFFPTNGQIHINDRVQFAMTNYTERMGANSLYSVVAHEMGHALGFSHSPDIDSVMFAYDTPRKWKFTSMDKYNMRSYYGAKASKKENEEEERKTENEDKRRKTEKDRGRTREHESDDIRPNECRVENPIVVQYRGEYLIFKSQWVWRVSSDWKRLIIKAVPINQLFPGLPNPIDAAVTVGHNLWVFVGEMIYVIYGNHMVHAPLRLSDIGINEKYVDLAYEWHYFNPPAVYIWKGSRYWKLDEKMYHRRVDERYPKDTDLNWARVPKGVHSAFTYEKEIHLLRGNQVFRMNSSRSVFDIADGYPQPLQSFFGFCPRNEKLVLNSSSSHFSLIYATITILILIF | not soluble
19 | MGHHHHHHSHMKDLTDMDKNSPEAWCAAGNCFSLQREHDIAIKFFQRAIQVDPNYAYAYTLLGHEFVLTEELDKALACFRNAIRVNPRHYNAWYGLGMIYYKQEKFSLAEMHFQKALDINPQSSVLLCH | not soluble
20 | MGSDKIHHHHHHMMQPVINAPEIATAREQQLFNGKNFHVFIYNKTESISGLHQHDYYEFTLVLTGRYFQEINGKRVLLERGDFVFIPLGSHHQSFYEFGATRILNVGISKRFFEQHYLPLLPYCFVASQVYRTNNAFLTYVETVISSLNFRETGLEEFVEMVTFYVINRLRHYREEQVIDDVPQWLKSTVEKMHDKEQFSESALENMVALSAKSQEYLTRATQRYYGKTPMQIINEIRINFAKKQLEMTNYSVTDIAFEAGYSSPSLFIKTFKKLTSFTPKSYRKKLTEFNQ | not soluble
21 | MGSDKIHHHHHHMLANQNVRARVQNHQLFSSLNEAQLAKIFATASLLHIKPEQMLFHQGELASRFYFVLAGTLQLFRTNVQGQMKVIEVVRSGCTFAEALMFNKQTRFPVSAQSVSECALVSFDSETYLQLLKHNPDACIAIMADLSVRIRKHINEVEMVSLQNAQHRLLLFLLRKMTVVGDNQGEITLDIPKRLLASRLSIQPETFSRLIKKMSQTGLIAESHGVIRIPDVALLYASTDISITQPTFNQQGPSSAIPLVCN | not soluble
